From article PMC9504981

Molecular target: 10×Histidine-tagged amino acids 1-416 of potato virus X RNA-dependent RNA polymerase, 10×His-MET_(1-416) (potato virus X)
Test: cross-linking

Substance: 10×Histidine-tagged amino acids 1-416 of potato virus X RNA-dependent RNA polymerase, 10×His-MET_(1-416) (domain or fragment)
- stoichiometry N: > 5
